Changes are numbered by the printed parent chain.

B1: A12 (antibody, human IgG1, lambda, L234A L235A, V domains shown)
VH: EVQLVESGGGLVQPGGSLKLSCAASGFTFNTYAMNWVRQASGKGLEWVGRIRSKYNNYATYYADSVKDRFTISRDDSKNTAYLQMNSLKTEDTAVYYCVRHGNFGNSYVSWFAYWGQGTLVTVSS
VL: QAVVTQEPSLTVSPGGTVTLTCRSSTGAVTTSNYANWVQQKPGQAPRTLIGGTNKRAPWTPARFSGSLLGDKAALTLSGAQPEDEAEYYCALWYSNLWVFGGGTKLTVLG
B2: H11 (antibody, human IgG1, lambda, L234A L235A, V domains shown)
VH: B1 VH with G49A, K78Q, N79S, A81L
VL: B1 VL with D71G
B3: H12 (antibody, human IgG1, lambda, L234A L235A, V domains shown)
VH: B1 VH with G49A, K78Q, N79S, A81L
VL: B1 VL
B4: A02 (antibody, human IgG1, lambda, L234A L235A, V domains shown)
VH: B1 VH
VL: B1 VL with V38F, G51Y
B5: H06 (antibody, human IgG1, lambda, L234A L235A, V domains shown)
VH: B1 VH with G49A, K78Q, N79S, A81L
VL: B1 VL with V38F, T48G, G51Y
B6: H13 (antibody, human IgG1, lambda, L234A L235A, V domains shown)
VH: B1 VH with G49A, K78Q, N79S, A81L
VL: B1 VL with T48G, G51Y, D71G
B7: H14 (antibody, human IgG1, lambda, L234A L235A, V domains shown)
VH: B1 VH with G49A, K78Q, N79S, A81L
VL: B1 VL with T48G, G51Y
B8: A13 (antibody, human IgG1, lambda, L234A L235A, V domains shown)
VH: B1 VH
VL: B1 VL with T48G, G51Y, D71G
B9: H08 (antibody, human IgG1, lambda, L234A L235A, V domains shown)
VH: B1 VH with G49A, K78Q, N79S, A81L
VL: B1 VL with V38F, T48G
B10: H09 (antibody, human IgG1, lambda, L234A L235A, V domains shown)
VH: B1 VH with G49A, K78Q, N79S, A81L
VL: B1 VL with G51Y, D71G
B11: H07 (antibody, human IgG1, lambda, L234A L235A, V domains shown)
VH: B1 VH with G49A, K78Q, N79S, A81L
VL: B1 VL with V38F, T48G, D71G
B12: H05 (antibody, human IgG1, lambda, L234A L235A, V domains shown)
VH: B1 VH with G49A, K78Q, N79S, A81L
VL: B1 VL with V38F, T48G, G51Y, D71G
B13: A14 (antibody, human IgG1, lambda, L234A L235A, V domains shown)
VH: B1 VH
VL: B1 VL with T48G, G51Y
B14: H10 (antibody, human IgG1, lambda, L234A L235A, V domains shown)
VH: B1 VH with G49A, K78Q, N79S, A81L
VL: B1 VL with G51Y

Chain of recombinant human CD3ε/δ heterodimer (human) (P07766 23-126, stated change not applied, chain 1 of 2): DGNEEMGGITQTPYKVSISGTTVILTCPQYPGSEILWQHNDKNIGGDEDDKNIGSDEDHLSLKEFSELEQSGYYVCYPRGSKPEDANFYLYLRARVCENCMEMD
Chain of recombinant human CD3ε/δ heterodimer (human) (P04234 22-105, stated change not applied, chain 2 of 2, further chain): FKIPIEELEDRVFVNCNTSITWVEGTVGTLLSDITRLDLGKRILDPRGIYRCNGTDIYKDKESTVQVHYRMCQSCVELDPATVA

The target in one assay is recombinant cynomolgus monkey CD3ε/δ heterodimer (cynomolgus monkey) (UniProt Q95LI5). The experiment in a line: ELISA, coated CD3ε/δ. (In general: An ELISA detects its analyte on a solid surface through an enzyme-linked reagent.)
Chain of recombinant cynomolgus monkey CD3ε/δ heterodimer (cynomolgus monkey) (Q95LI5 22-117, stated change not applied, chain 1 of 2): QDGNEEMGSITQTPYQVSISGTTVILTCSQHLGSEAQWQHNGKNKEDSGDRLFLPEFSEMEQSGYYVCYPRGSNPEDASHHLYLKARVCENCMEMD
Chain of recombinant cynomolgus monkey CD3ε/δ heterodimer (cynomolgus monkey) (Q95LI8 22-105, stated change not applied, chain 2 of 2, further chain): as the sequence (P04234 22-105, stated change not applied, chain 2 of 2, further chain) above, with I5V, N15K, I20V, S32T, D33N, I34N, T64A, S74N, V83L counted along it
In the case of B1, the Absorbance (450 nm) turned out to be 0.068.
B2: the Absorbance (450 nm) is 0.142.
For the molecule B3, the Absorbance (450 nm) is 0.083.
The same measure, in the same setting: as for B4, the figure is 0.068.
On to B5, for which the Absorbance (450 nm) came out at 0.101.
Same read-out and setting: the figure for B6 is 0.196; for B7 it is 0.094.
The same measure, in the same setting: the figure for B8 is 0.154; for B9 it is 0.136.
The same measure, in the same setting: as for B10, the figure is 0.113; as for B11, 0.09; as for B12, 0.061.
On to B13, for which the Absorbance (450 nm) is 0.113.
On the same count and under the same terms, the figure for B14 is 0.077.

The next assay addresses recombinant human CD3ε/δ heterodimer (human) (UniProt P07766). The experiment in a line: ELISA, coated CD3ε/δ.
B1: the Absorbance (450 nm) came to 0.097.
Still for that read-out and setting: the figure for B2 is 0.122; for B3 it is 0.099.
For B4, the Absorbance (450 nm) came to 0.098.
The same measure, in the same setting: as for B5, the figure is 0.134; as for B6, 0.175.
Same read-out and setting: as for B7, the figure is 0.096; as for B8, 0.172; as for B9, 0.118.
Same read-out and setting: as for B10, the figure is 0.141.
Regarding B11, the Absorbance (450 nm) worked out at 0.11.
Still for that read-out and setting: as for B12, the figure is 0.078; as for B13, 0.125.
For B14, the Absorbance (450 nm) is 0.088.

For the origin of these results see patent publication US20200317779A1.
